We go through eleven molecules from patent US20240270821A1, “GIP/GLP1/GCG TRI-RECEPTOR AGONISTS AND USES THEREOF” (priority 2023, published 2024).

Positions count from the first letter of the chain named.

Common to all, as to assay: cell-based or functional assay
The target of assay [1] is human glucagon receptor (human) (UniProt P47871).
In another assay the target is hGLP-1R (Homo sapiens, UniProt P43220).
The target in assay [2] is T1, human GIP receptor (human) (UniProt P48546).
T1 sequence (looked up): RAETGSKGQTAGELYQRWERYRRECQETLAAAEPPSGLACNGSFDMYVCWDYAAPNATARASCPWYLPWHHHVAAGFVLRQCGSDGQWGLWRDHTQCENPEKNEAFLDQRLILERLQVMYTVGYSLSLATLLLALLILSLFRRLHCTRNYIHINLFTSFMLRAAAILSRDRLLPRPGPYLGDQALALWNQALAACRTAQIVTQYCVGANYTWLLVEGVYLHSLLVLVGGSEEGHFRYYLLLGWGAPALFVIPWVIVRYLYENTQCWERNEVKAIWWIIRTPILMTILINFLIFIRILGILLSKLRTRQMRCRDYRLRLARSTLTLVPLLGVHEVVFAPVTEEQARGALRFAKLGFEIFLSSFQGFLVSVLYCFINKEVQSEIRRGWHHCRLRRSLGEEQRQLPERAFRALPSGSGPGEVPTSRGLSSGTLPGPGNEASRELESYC

Sequence of human glucagon receptor (human) (P47871 26-477): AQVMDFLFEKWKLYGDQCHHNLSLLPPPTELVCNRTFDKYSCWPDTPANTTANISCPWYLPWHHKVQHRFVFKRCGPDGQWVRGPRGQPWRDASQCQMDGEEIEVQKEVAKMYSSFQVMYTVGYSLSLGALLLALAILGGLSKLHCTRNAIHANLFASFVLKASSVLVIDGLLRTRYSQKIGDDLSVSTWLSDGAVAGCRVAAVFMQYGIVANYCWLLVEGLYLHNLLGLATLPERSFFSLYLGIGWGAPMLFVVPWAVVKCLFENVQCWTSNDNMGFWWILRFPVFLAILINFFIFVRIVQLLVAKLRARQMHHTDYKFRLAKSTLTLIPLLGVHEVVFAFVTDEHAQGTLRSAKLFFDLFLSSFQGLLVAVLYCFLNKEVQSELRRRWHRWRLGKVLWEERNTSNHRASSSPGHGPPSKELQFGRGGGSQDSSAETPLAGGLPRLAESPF
Sequence of hGLP-1R (P43220 24-463): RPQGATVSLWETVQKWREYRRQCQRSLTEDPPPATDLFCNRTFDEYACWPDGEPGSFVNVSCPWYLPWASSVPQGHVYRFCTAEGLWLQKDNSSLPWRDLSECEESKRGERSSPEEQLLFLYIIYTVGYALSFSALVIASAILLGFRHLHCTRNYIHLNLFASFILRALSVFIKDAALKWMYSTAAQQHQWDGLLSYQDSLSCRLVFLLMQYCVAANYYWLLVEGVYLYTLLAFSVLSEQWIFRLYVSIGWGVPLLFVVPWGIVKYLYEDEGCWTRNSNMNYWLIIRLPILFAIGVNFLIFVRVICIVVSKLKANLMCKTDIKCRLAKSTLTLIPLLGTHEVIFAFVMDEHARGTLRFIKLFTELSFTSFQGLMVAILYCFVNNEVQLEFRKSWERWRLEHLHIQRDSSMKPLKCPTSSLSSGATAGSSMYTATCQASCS

B1: Example 608 (peptide)
chain: YXQGTXTSDXSILLDKKAQXAFIEYLEEGGPSSGEPPPSGTEE
modifications: non-natural residues, acylated Lys ((γGlu)2-C18 diacid), C-terminal amide; synthetic construct; SITE 2: note = 2-Aminoisobutyric Acid; SITE 6: note = alpha-methyl-2-fluoro-L-phenylalanine; SITE 10: note = 3-(4-Pyridyl)-L-alanine; SITE 17: note = Lysine is chemically modified through conjugation of the epsilon-amino group of the Lysine side chain with (gamma-Glu)2-CO-(CH2)1
With B1, the Relative cAMP EC50 in assay [1] was found to be 7.82 nM; with hGLP-1R, 1.87 nM; in assay [2] it was 0.124 nM. Moreover, the values for the cAMP Rel EC50 (in the presence of 1% HSA) (in assay [1]; with hGLP-1R; in assay [2]) were 669 nM, 201 nM and 8.51 nM, respectively.

B2: Example 610 (peptide)
chain: B1 chain with E35A, T41S
modifications: Aib, αMeF(2F), 4Pal; lysine acylated C18 diacid; amide; synthetic construct; SITE 2: note = 2-Aminoisobutyric Acid; SITE 6: note = alpha-methyl-2-fluoro-L-phenylalanine; SITE 10: note = 3-(4-Pyridyl)-L-alanine; SITE 17: note = Lysine is chemically modified through conjugation of the epsilon-amino group of the Lysine side chain with (gamma-Glu)2-CO-(CH2)1
On to B2, for which the Relative cAMP EC50 in assay [1] stood at 5.75 nM; in the assay with hGLP-1R it was 1.66 nM; in assay [2], 0.133 nM. For the same molecule, the cAMP Rel EC50 (in the presence of 1% HSA) in assay [1] stood at 536 nM; with hGLP-1R, 130 nM; in assay [2], 7.02 nM.

B3: Example 603 (peptide)
chain: YXQGTXTSDXXILLDXKAQXXFIEYLIEGGPSSGEPPPEGSEE
modifications: non-natural residues, acylated Lys ((γGlu)2-C18 diacid), C-terminal amide; synthetic construct; SITE 2: note = 2-Aminoisobutyric Acid; SITE 6: note = alpha-methyl-2-fluoro-L-phenylalanine; SITE 10: note = 3-(4-Pyridyl)-L-alanine; SITE 11: note = alpha-methyl-L-serine; SITE 16: note = L-ornithine; SITE 17: note = Lysine is chemically modified through conjugation of the epsi
In the case of B3, the Relative cAMP EC50 in assay [1] was 5.43 nM; with hGLP-1R, 0.688 nM; in assay [2], 0.102 nM. Also, the cAMP Rel EC50 (in the presence of 1% HSA) in assay [1] worked out at 419 nM; with hGLP-1R, 49.5 nM; in assay [2] it was 4.99 nM.

B4: Example 605 (peptide)
chain: B3 chain with S41G
modifications: Aib, αMeF(2F), 4Pal, αMeS, Orn; acylated lysine; amide; synthetic construct; SITE 2: note = 2-Aminoisobutyric Acid; SITE 6: note = alpha-methyl-2-fluoro-L-phenylalanine; SITE 10: note = 3-(4-Pyridyl)-L-alanine; SITE 11: note = alpha-methyl-L-serine; SITE 16: note = L-ornithine; SITE 17: note = Lysine is chemically modified through conjugation of the epsi
Consider B4, for which the Relative cAMP EC50 in assay [1] stood at 5.49 nM; with hGLP-1R, 0.795 nM; in assay [2], 0.132 nM. The cAMP Rel EC50 (in the presence of 1% HSA) was found to be 353 nM in assay [1], 56.2 nM with hGLP-1R and 6.69 nM in assay [2].

B5: Example 604 (peptide)
chain: B3 chain with S41A
modifications: non-natural residues; Lys acylated C18 diacid; C-terminal amide; synthetic construct; SITE 2: note = 2-Aminoisobutyric Acid; SITE 6: note = alpha-methyl-2-fluoro-L-phenylalanine; SITE 10: note = 3-(4-Pyridyl)-L-alanine; SITE 11: note = alpha-methyl-L-serine; SITE 16: note = L-ornithine; SITE 17: note = Lysine is chemically modified through conjugation of the epsi
For the molecule B5, the Relative cAMP EC50 stood at 5.5 nM in assay [1], 0.705 nM with hGLP-1R and 0.161 nM in assay [2]. Besides, the results for the cAMP Rel EC50 (in the presence of 1% HSA) (in assay [1]; in the assay with hGLP-1R; in assay [2]) were 427 nM, 51 nM and 4.84 nM, respectively.

B6: Example 606 (peptide)
chain: B3 chain with S41E
modifications: Lys acylated (γ-Glu)2-C18 diacid; non-natural residues; C-terminal amide; synthetic construct; SITE 2: note = 2-Aminoisobutyric Acid; SITE 6: note = alpha-methyl-2-fluoro-L-phenylalanine; SITE 10: note = 3-(4-Pyridyl)-L-alanine; SITE 11: note = alpha-methyl-L-serine; SITE 16: note = L-ornithine; SITE 17: note = Lysine is chemically modified through conjugation of the epsi
B6: the Relative cAMP EC50 in assay [1] was 5.01 nM; with hGLP-1R it was 0.786 nM; in assay [2] it was 0.17 nM. The results for the cAMP Rel EC50 (in the presence of 1% HSA) (in assay [1]; with hGLP-1R; in assay [2]) were 474 nM, 53.1 nM and 5.69 nM, respectively.

B7: Example 543 (peptide)
chain: YXQGTXTSDXXIXLDXKAQXXFIEXLTEGGPSSGEPPPSGTGE
modifications: synthetic construct; SITE 2: note = 2-Aminoisobutyric Acid; SITE 6: note = alpha-methyl-2-fluoro-L-phenylalanine; SITE 10: note = 3-(4-Pyridyl)-L-alanine; SITE 11: note = alpha-methyl-L-serine; SITE 13: note = alpha-methyl-leucine; SITE 16: note = L-ornithine; SITE 17: note = Lysine is chemically mo
As to B7, the Relative cAMP EC50 in assay [1] turned out to be 4.56 nM; with hGLP-1R it was 0.41 nM; in assay [2] it was 0.0319 nM. Further, the cAMP Rel EC50 (1% HSA) in assay [1] is 300 nM; in the assay with hGLP-1R it was 32 nM; in assay [2] it was 1.88 nM.

B8: Example 597 (peptide)
chain: B7 chain with S39E, G42E
modifications: acylated Lys (γGlu)2-C18 diacid; non-natural residues; C-terminal amide; synthetic construct; SITE 2: note = 2-Aminoisobutyric Acid; SITE 6: note = alpha-methyl-2-fluoro-L-phenylalanine; SITE 10: note = 3-(4-Pyridyl)-L-alanine; SITE 11: note = alpha-methyl-L-serine; SITE 13: note = alpha-methyl-leucine; SITE 16: note = L-ornithine; SITE 17: note = Lysine is chemically mo
Regarding B8, the Relative cAMP EC50 worked out at 5.2 nM in assay [1], 0.6 nM in the assay with hGLP-1R and 0.0643 nM in assay [2]. For the same molecule, the cAMP Rel EC50 (in the presence of 1% HSA) stood at 329 nM in assay [1], 36.4 nM in the assay with hGLP-1R and 2.38 nM in assay [2].

B9: Example 545 (peptide)
chain: B7 chain with T27A
modifications: synthetic construct; SITE 2: note = 2-Aminoisobutyric Acid; SITE 6: note = alpha-methyl-2-fluoro-L-phenylalanine; SITE 10: note = 3-(4-Pyridyl)-L-alanine; SITE 11: note = alpha-methyl-L-serine; SITE 13: note = alpha-methyl-leucine; SITE 16: note = L-ornithine; SITE 17: note = Lysine is chemically mo
With B9, the Relative cAMP EC50 in assay [1] stood at 2.71 nM; in the assay with hGLP-1R it was 0.602 nM; in assay [2], 0.0432 nM. The results for the cAMP Rel EC50 (1% HSA) (in assay [1]; in the assay with hGLP-1R; in assay [2]) were 180 nM, 40.2 nM and 2.74 nM, respectively.

B10: Example 52 (peptide)
chain: YXQGTFTSDFSKXLDKKAQXAFIEYLLEGGPSSGAPPPXEG
modifications: synthetic construct; SITE 2: note = 2-Aminoisobutyric Acid; SITE 13: note = alpha-methyl-leucine; SITE 17: note = Lysine is chemically modified through conjugation of the epsilon-amino group of the Lysine side chain with (2-[2-(2-Amino-ethoxy)-ethoxy]-acetyl)-(gamma-Glu)-CO-(CH2) 18-CO2H; SITE 20: n
Take B10: the Relative cAMP EC50 is 5.84 nM in assay [1], 5.18 nM with hGLP-1R and 0.449 nM in assay [2]. In addition, the cAMP Rel EC50, nM (in the presence of 1% HSA) in assay [1] stood at 1740 nM; in the assay with hGLP-1R, 1250 nM; in assay [2], 111 nM.

B11: Example 53 (peptide)
chain: B10 chain with E40G, G41E
modifications: synthetic construct; SITE 2: note = 2-Aminoisobutyric Acid; SITE 13: note = alpha-methyl-leucine; SITE 17: note = Lysine is chemically modified through conjugation of the epsilon-amino group of the Lysine side chain with (2-[2-(2-Amino-ethoxy)-ethoxy]-acetyl)-(gamma-Glu)-CO-(CH2) 18-CO2H; SITE 20: n
As to B11, the results for the Relative cAMP EC50 (in assay [1]; with hGLP-1R; in assay [2]) were 4.19 nM, 3.31 nM and 0.518 nM, respectively. Further, the cAMP Rel EC50, nM (in the presence of 1% HSA) was 1780 nM in assay [1], 1030 nM with hGLP-1R and 113 nM in assay [2].
